In article PMC10019796 (Scientific Reports, 2023):
Where a chain is given by its changes, count along the chain named. Names and notes keep the numbering of the source.

B1: REGN10933 (Casirivimab) Fab wild type (Fab, V domains shown)
VH: QVQLVESGGGLVKPGGSLRLSCAASGFTFSDYYMSWIRQAPGKGLEWVSYITYSGSTIYYADSVKGRFTISRDNAKSSLYLQMNSLRAEDTAVYYCARDRGTTMVPFDYWGQGTLVTVSS
VL: DIQMTQSPSSLSASVGDRVTITCQASQDITNYLNWYQQKPGKAPKLLIYAASNLETGVPSRFSGSGSGTDFTFTISGLQPEDIATYYCQQYDNLPLTFGGGTKVEIK
notes: Fab heavy chain of REGN10933; Fab light chain of REGN10933; Polycistronic gene, light chain upstream of heavy chain; also called REGN10933 wild type; REGN10933 Fab
B2: REGN10933 (T28E) Fab (Fab, V domains shown)
VH: B1 VH with T28E
VL: B1 VL
B3: REGN10933 (A75S) Fab (Fab, V domains shown)
VH: B1 VH with A75S
VL: B1 VL
B4: REGN10933 (M104N) Fab (Fab, V domains shown)
VH: B1 VH with M104N
VL: B1 VL
B5: REGN10933 (N93Q) Fab (Fab, V domains shown)
VH: B1 VH
VL: B1 VL with N93Q
B6: REGN10987 (Imdevimab) Fab wild type (Fab, V domains shown)
VH: QVQLVESGGGVVQPGRSLRLSCAASGFTFSNYAMYWVRQAPGKGLEWVAVISYDGSNKYYADSVKGRFTISRDNSKNTLYLQMNSLRTEDTAVYYCASGSDYGDYLLVYWGQGTLVTVSS
VL: QSALTQPASVSGSPGQSITISCTGTSSDVGGYNYVSWYQQHPGKAPKLMIYDVSKRPSGVSNRFSGSKSGNTASLTISGLQSEDEADYYCNSLTSISTWVFGGGTKLTVL
notes: Fab heavy chain of REGN10987; Fab light chain of REGN10987; Polycistronic gene, light chain upstream of heavy chain; also called REGN10987 wild type; REGN10987 Fab
B7: REGN10987 (S95K) Fab (Fab, V domains shown)
VH: B6 VH
VL: B6 VL with S95K
B8: REGN10987 (N31D) Fab (Fab, V domains shown)
VH: B6 VH with N31D
VL: B6 VL

Experiments:
[1] = biological target: T1, mtDsbC-SARS-CoV-2 RBD wild type fusion protein (SARS-CoV-2, wild type (Wuhan-Hu-1), UniProt P0DTC2, biotin (EZ-Link NHS-PEG4-Biotin)); assay: BLI; biotinylated mtDsbC-RBD (20 µg/mL) immobilised on streptavidin (SA) biosensors, Fabs as analytes at three nanomolar concentrations; Octet RED384, 30 °C, 1000 rpm, 1 × PBS Kinetics Buffer; 1:1 interaction model, global fit; details: both partners purified
T1 construct: also called RBD SARS-CoV-2 (wild type); mtDsbC-RBD; not shown: mtDsbC solubility tag, N-terminal, kept

[2] = biological target: T2, mtDsbC-SARS-CoV-2 RBD Alpha variant (B.1.1.7) fusion protein (SARS-CoV-2, Alpha (B.1.1.7), RBD N501Y, N501Y, biotin (EZ-Link NHS-PEG4-Biotin)); assay: as above; details: both partners purified
T2 construct: also called RBD SARS-CoV-2 (alpha variant); not shown: mtDsbC solubility tag, N-terminal, kept

| Binder | Kd [1] [nM] | Kd [2] [nM] |
| --- | --- | --- |
| B1 | 2.84 | 3.12 |
| B2 | < 0.001 | < 0.001 |
| B3 | 3.22 | 2.75 |
| B4 | 143 | 119 |
| B5 | 2.76 | 3.42 |
| B6 | 43.9 | 54.1 |
| B7 | 30.5 | 22.8 |
| B8 | 17.9 | 13.7 |
